Test results reported in US8431396B2, “Anti-angiogenic peptides” (The Cleveland Clinic Foundation, priority 2003, dated 2013).

Assays:
PAE-PDGFR-β cells = test: Endothelial cell proliferation in response to PDGF-BB; format: cell-based, porcine; details: recombinant TIMP3 (1 and 5 μg/ml) or overexpression
PAEKDR cells = test: VEGF-stimulated actin reorganization / membrane ruffles; format: cell-based, porcine; details: 50 ng/ml VEGF for 15 min
Method: For immunostaining, subconfluent cells cultured on Falcon cultureslides (BD, Biosciences) were used. For surface KDR detection, cells were fixed in 1% paraformaldehyde for 10 min at 4° C. Following blocking with 1% BSA cells were incubated with anti-extracellular VEGFR-2 monoclonal antibody for 1 h at room temperature. Surface KDR was detected with biotinylated anti-mouse […] (1:1000) and Texas Red avidin D (1:1500) using standard procedures. […] The cells were fixed with 3.7% paraformaldehyde in PBS for 30 min at 4° C. and permeabilized with 0.2 Triton X-100 for 20 min at room temperature. Following rinsing with PBS the cells were incubated with fluorescein isothiocyanate (FITC)-labeled phalloidin in PBS (0.66 μg/ml, Sigma) for 20 min at room temperature washed with PBS and analyzed by fluorescence microscopy.

KDR [1] = target: T1, KDR (Homo sapiens, UniProt P35968); test: VEGF-stimulated KDR tyrosine phosphorylation in membrane fractions (Western blot); format: cell-based; details: WT-TIMP3 cells; data not shown
T1 construct: To determine whether these receptor isoforms represent full-length VEGFR-2; expressed in transfected cells; host or cells: porcine aortic endothelial (PAE) cells
Method: 2 day serum free conditioned medium (CM) was collected from subconfluent cells cultured on six-well plates (Costar). In some cases the CM was further concentrated with heparin-agarose gels (Bio-rad). The cell monolayer was dislodged from the culture plates following a 10 min incubation in Ca2+, Mg2+ free phosphate buffered saline (PBS) containing 2.5 mM EDTA. After several rinses in PBS and water, the ECM was scraped in a small volume of electrophoresis sample buffer without reducing agent for analyses. Plasma membrane (PM) fractions were prepared from cells centrifuged at 500 g and 4° C. for 5 min The supernatant was discarded and the cell pellets were resuspended in PBS containing protease inhibitors, lysed with a 26-gauge syringe needle, and centrifuged at 3,000 g at 4° C. for 15 minutes. The supernatant was centrifuged at […] at 4° C. for 1 hr. The PM pellets were suspended in lysis buffer containing protease inhibitors. In some instances the membrane fraction of cells was prepared using ProteoExtract Subcellular Proteome Extaction Kit (EMD Biosciences, Inc).
Cell fractions or immunoprecipitates of the lysates with the indicated antibodies were subjected to SDS-PAGE. Proteins were detected with either a HRP-conjugated anti-rabbit or anti mouse IgG antibody (Amersham Pharmacia Biotech., Piscataway, N.J.) followed by ECL. […]

[2] = tested on: MS1 mouse endothelial cells; test: MS1 endothelial cells infected with adenovirus expressing WT-TIMP3 or TIMP3Cys1-Ser: apoptosis and [3H]thymidine incorporation; format: cell-based; details: MS1 cells infected with wild-type or mutant virus
Method: MS1 mouse endothelial cells\(American Type Culture Collection, Manassas, Va.) were cultured until 80% confluent and infected with adenovirus as described. Cells were infected at 50 or 200 plaque-forming units per cell for 18 h. Medium was then replaced with fresh complete medium and left for 48 h until analysis.
(§1) A modified Boyden chamber assay for migration and proliferation assays were carried out as described.

soluble VEGFR-2 = test: Soluble VEGFR-2 (sKDR) in conditioned medium (ELISA); format: cell-based, human; details: WT-TIMP3 cells; data not shown
KDR-IgG = target: T2, KDR-IgG (Homo sapiens, UniProt P35968); test: Cross-linking of [125I]TIMP3 to soluble KDR; format: binding; details: bis(sulfosuccinimidyl)suberate
T2 construct: purchased R&D Systems
Method: (§2) Immunoprecipitation of cell lysates with antibodies specific for TIMP3 was followed by immunoblotting with antibodies specific for KDR (top). As a control for KDR receptor, cell lysates were immunoprecipitated with anti-bodies specific for KDR and probed with antibodies specific for KDR Immunoprecipitation with antibodies specific for KDR and immunoblotting with antibodies specific for TIMP3 (bottom) were carried out on PAE-KDR cells exposed to recombinant TIMP3 or PAE-KDR-vector and PAE-KDR cells overexpressing TIMP3, to confirm the interaction. […] Competition with unlabeled TIMP3 was carried out to ensure specificity. […] (E) In vivo interaction of KDR and TIMP3 in human placenta. Immunoprecipitation using antibodies specific TIMP3 (top) and KDR (bottom) was followed by immunoblotting with antibodies specific for KDR (top) and TIMP3 (bottom).
Ligand-receptor complexes on the cell surface were crosslinked with 0.5 mM disuccinimidyl suberate (Pierce) and analyzed by immunoprecipitation and SDS-PAGE followed by autoradiography. For in vitro assays, radioligand was crosslinked with 250 ng soluble KDR.

endothelial cells = test: Competitive displacement of [125I]TIMP3 from the surface of endothelial cells; format: binding; details: unlabeled VEGF 2 μg/ml, TIMP3 10 μg/ml
Method: as §2

KDR [3] = target: T1, KDR; test: [125I]VEGF binding to the surface of PAE-KDR cells; details: pretreatment with recombinant protein
Method: Radioligand binding is expressed as percent binding and is the mean±s.e.m. of triplicate samples. […] All values are expressed as mean±s.e.m. of triplicate samples. […] Binding is expressed as mean±s.e.m.
Data were analyzed by Scatchard plot analyses.

PAE-FGFR1 cells = test: Endothelial cell proliferation in response to bFGF; format: cell-based, porcine; details: recombinant TIMP3 (1 and 5 μg/ml) or overexpression
ERK1 and ERK2 = ERK1 and ERK2 phosphorylation (immunoblot); format: cell-based; details: recombinant TIMP3
Method: PDGF-BB-mediated phosphorylation was examined similarly in PAESPDGFR-β cells (anti-PDGFR-β; top right panel). […] PDGF-BB-mediated phosphorylation of PDGFR-β in PAE-PDGFR-β cells overexpressing TIMP3 (top right). KDR protein or PDGFR-β protein was analyzed by both immunoprecipitation and immunoblotting with antibodies specific for KDR (left) or for PDGFR-β (right; A and B, second panels from top). […] Total protein levels of ERK were determined by immunoblotting with antibodies specific for ERK1/2 (anti-ERK1/2; A and B, bottom).
Cell fractions, prepared as described earlier, or immunoprecipitates of the lysates with the indicated antibodies, were subjected to SDS-PAGE. Proteins were detected with horseradish peroxidase-conjugated antibodies specific for either rabbit or mouse IgG (Amersham Pharmacia, Piscataway, N.J.) followed by enhanced chemiluminescence.

PAE-KDR cells = test: Endothelial cell migration toward VEGF (modified Boyden chamber); format: cell-based, porcine
Method: (B) Comparison of the effects of rTIMP3, rTIMP1 and BB3103 on VEGF165-induced migration of PAE-KDR cells. […] In all migration experiments, migrating cell number is expressed as mean±s.e.m. of quadruplicate samples. All experiments were done in triplicate. Open symbols, KDR-vector; closed symbols, KDR-TIMP3.*, P<0.01; **, P<0.05.
as §1

[4] = tested on: MDA-MB435 human breast carcinoma cells; test: Tumors from mice injected with MDA-MB435 cells transfected with TIMP3, von Willebrand factor staining; format: in vivo; details: von Willebrand factor immunostaining; TIMP3-transfected tumor cells
Excerpt: Brown reaction product depicts endothelial cells lining the vessels.

T1 sequence (P35968 20-1356): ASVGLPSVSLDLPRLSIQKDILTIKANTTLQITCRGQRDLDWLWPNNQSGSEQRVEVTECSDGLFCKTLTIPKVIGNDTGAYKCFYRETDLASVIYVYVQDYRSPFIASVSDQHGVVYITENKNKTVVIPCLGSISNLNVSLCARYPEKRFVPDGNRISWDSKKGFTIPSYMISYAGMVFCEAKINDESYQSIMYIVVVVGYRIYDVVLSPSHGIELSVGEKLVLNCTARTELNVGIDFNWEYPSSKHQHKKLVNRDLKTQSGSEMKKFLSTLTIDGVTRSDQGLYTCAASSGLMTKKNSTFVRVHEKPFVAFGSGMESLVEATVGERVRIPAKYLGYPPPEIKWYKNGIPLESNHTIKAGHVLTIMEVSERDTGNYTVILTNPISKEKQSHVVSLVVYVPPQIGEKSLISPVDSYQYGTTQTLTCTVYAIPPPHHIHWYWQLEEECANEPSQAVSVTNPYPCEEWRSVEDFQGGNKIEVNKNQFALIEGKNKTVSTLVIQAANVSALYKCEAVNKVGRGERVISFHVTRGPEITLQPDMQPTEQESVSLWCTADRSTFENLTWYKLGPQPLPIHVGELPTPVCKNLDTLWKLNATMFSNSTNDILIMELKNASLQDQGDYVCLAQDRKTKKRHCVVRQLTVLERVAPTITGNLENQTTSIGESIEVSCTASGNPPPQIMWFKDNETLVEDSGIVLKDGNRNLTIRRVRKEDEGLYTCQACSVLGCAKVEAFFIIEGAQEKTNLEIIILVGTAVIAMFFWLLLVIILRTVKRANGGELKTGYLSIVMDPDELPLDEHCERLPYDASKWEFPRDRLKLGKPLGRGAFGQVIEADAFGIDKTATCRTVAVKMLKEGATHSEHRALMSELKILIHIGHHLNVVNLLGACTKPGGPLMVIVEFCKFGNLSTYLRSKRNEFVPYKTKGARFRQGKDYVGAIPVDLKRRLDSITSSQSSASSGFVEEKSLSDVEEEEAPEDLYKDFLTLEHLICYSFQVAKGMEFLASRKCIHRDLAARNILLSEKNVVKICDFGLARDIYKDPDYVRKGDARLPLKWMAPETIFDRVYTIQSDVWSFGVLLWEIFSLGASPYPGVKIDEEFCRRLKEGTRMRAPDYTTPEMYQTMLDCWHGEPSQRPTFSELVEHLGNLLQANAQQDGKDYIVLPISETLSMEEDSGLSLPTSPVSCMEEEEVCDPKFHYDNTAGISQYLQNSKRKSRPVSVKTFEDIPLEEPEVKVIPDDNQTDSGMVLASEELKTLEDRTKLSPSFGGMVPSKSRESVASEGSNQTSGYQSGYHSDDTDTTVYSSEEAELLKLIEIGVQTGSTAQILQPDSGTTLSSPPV
T2 sequence (P35968 20-764 limits assumed): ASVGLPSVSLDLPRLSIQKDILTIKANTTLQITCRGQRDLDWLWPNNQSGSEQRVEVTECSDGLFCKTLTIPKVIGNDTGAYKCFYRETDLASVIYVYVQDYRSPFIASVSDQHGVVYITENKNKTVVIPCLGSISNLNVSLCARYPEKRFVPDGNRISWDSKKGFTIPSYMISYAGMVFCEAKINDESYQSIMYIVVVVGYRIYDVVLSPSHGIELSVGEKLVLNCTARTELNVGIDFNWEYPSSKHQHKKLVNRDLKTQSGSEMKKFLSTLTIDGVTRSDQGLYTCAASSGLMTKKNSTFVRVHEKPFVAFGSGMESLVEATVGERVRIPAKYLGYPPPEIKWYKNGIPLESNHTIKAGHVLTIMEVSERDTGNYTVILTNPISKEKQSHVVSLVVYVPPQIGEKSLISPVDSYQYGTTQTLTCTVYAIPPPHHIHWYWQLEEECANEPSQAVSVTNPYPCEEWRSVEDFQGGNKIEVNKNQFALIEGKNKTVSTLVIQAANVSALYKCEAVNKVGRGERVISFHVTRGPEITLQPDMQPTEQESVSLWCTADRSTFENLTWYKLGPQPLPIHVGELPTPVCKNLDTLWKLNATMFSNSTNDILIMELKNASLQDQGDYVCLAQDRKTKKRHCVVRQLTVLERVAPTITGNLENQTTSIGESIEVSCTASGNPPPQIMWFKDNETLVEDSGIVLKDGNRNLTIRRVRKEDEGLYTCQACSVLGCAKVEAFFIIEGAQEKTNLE

B1: TIMP3: tissue inhibitor of metalloproteinases-3; recombinant human form expressed in NSO myeloma cells, or wild-type expressed in transfected cells (protein, listed as Homo sapiens)
chain: MTPWLGLIVLLGSWSLGDWGAEACTCSPSHPQDAFCNSDIVIRAKVVGKKLVKEGPFGTLVYTIKQMKMYRGFTKMPHVQYIHTEASESLCGLKLEVNKYQYLLTGRVYDGKMYTGLCNFVERWDQLTLSQRKGLNYRYHLGCNCKIKSCYYLPCFVTSKNECLWTDMLSNFGYPGYQSKHYACIRQKGGYCSWYRGWAPPDKSIINATDP
Which results are given for B1?
effect on proliferative response to PDGF-BB (PAE-PDGFR-β cells): Neither recombinant TIMP3 nor TIMP3 overexpression affected the proliferative response; VEGF-stimulated formation of membrane ruffles (PAEKDR cells): did not form membrane ruffles; receptor autophosphorylation after VEGF stimulation (KDR [1]): no receptor autophosphorylation was seen; apoptosis after adenovirus infection [2]: No apoptosis was observed; cleaved sVEGFR-2 in the CM, less than mock cells (soluble VEGFR-2): 10 fold; direct binding of [125I]TIMP3 to KDR-IgG by cross-linking (KDR-IgG): could be covalently cross-linked to KDR-IgG; inhibition of binding of labeled TIMP3 to the surface of endothelial cells (endothelial cells): could inhibit the binding of labeled TIMP3; IC50 for inhibition of [125I]VEGF binding to PAE-KDR cells (KDR [3]): 3.3 to 4.5 mg/L; effect on proliferative response to basic fibroblast growth factor (bFGF) (PAE-FGFR1 cells): Neither recombinant TIMP3 nor TIMP3 overexpression affected the proliferative response; downstream phosphorylation of ERK1 and ERK2 in response to VEGF (ERK1 and ERK2): inhibited in response to VEGF; inhibition of endothelial cell migration toward VEGF (PAE-KDR cells; added exogenously, VEGF165 10 ng/ml): inhibited their migration toward VEGF in a dose-dependent manner; dose giving complete inhibition of migration toward VEGF (PAE-KDR cells; recombinant protein added exogenously): 3 µg/mL; chemotactic response to VEGF121 and VEGF165 (PAE-KDR cells; stable expression of TIMP3 in the endothelial cells): attenuation of the chemotactic response; neovascularization of tumors expressing TIMP3 vs control tumors [4]: decrease in neovascularization
